Measurements: patent publication US20250270301A1 (GEN2 NEUROSCIENCE, published 2025)

B1: #44 VH3VK2 humanised hIgG1 (antibody, V domains shown)
VH: QVQLQESGPGLVKPSETLSLTCTVSGIDLSSYAMAWVRQAPGKGLEWIGCIDRRGGTFYASWVKGRFTISKTSTTVDLQMTSLTAEDTATYFCARDSGAFDPWGQGTLVTVSS
VL: QIVMTQSPSSLSASVGDRVTITCQASQSVYDNYLAWYQQKPGQPPKLLIHAASNLASGVPSRFKGSGSGTEFTLTISSLQPDDFATYYCLGEFSCTTTDCNVFGGGTKVEIK
notes: also called VH3Vκ2
B2: #44 VH3VK1 humanised hIgG1 (antibody, V domains shown)
VH: QVQLQESGPGLVKPSETLSLTCTVSGIDLSSYAMAWVRQAPGKGLEWIGCIDRRGGTFYASWVKGRFTISKTSTTVDLQMTSLTAEDTATYFCARDSGAFDPWGQGTLVTVSS
VL: QIVMTQSPSSLSASVGDRVTITCQASQSVYDNYLAWYQQKPGQPPKLLIHAASNLASRVPSRFKGSGSGTEFTLTISSLQCDDFATYYCLGEFSCTTTDCNVFGGGTEVVIK
notes: also called VH3Vκ1
B3: #44 VH4VK1 humanised hIgG1 (antibody, V domains shown)
VH: QVQLQESGPGLVKPSETLSLTCTVSGIDLSSYAMAWVRQAPGKGLEWIGCIDRRGGTFYASWVKGRFTISKDTSKTTVDLQMTSLTAEDTATYFCARDSGAFDPWGQGTLVTVSS
VL: QIVMTQSPSSLSASVGDRVTITCQASQSVYDNYLAWYQQKPGQPPKLLIHAASNLASRVPSRFKGSGSGTEFTLTISSLQCDDFATYYCLGEFSCTTTDCNVFGGGTEVVIK
notes: also called VH4Vκ1
B4: #44_VH4_H07/L2 (antibody, V domains shown)
VH: QVQLQESGPGLVKPSETLSLTCTVSGIDLSSYAMAWVRQAPGKGLEWIGAIDAAGNTFYASWVKGRFTISKDTSKTTVDLQMTSLTAEDTATYFCARDSGAFDPWGQGTLVTVSS
VL: DIQMTQSPSSLSASVGDRVTITCQASQSVYDNYLAWYQQKPGQPPKLLIHAASNLASGVPSRFSGSGSGTEFTLTISSLQPDDFATYYCLGEFSCQDTDCNVFGGGTKVEIKR
notes: also called Clone VH4_H07/L2
B5: #44_VH4_H14/L2 (antibody, V domains shown)
VH: QVQLQESGPGLVKPSETLSLTCTVSGIDLSSYAMAWVRQAPGKGLEWIGAIDSAGSTFYASWVKGRSTISKDTSKTTVDLQMTSLTAEDTATYFCARDSGAFDPWGQGTLVTVSS
VL: DIQMTQSPSSLSASVGDRVTITCQASQSVYDNYLAWYQQKPGQPPKLLIHAASNLASGVPSRFSGSGSGTEFTLTISSLQPDDFATYYCLGEFSCQDTDCNVFGGGTKVEIKR
notes: also called Clone VH4_H14/L2
B6: #44_VH4_H13/L2 (antibody, V domains shown)
VH: QVQLQESGPGLVKPSETLSLTCTVSGIDLSSYAMAWVRQAPGKGLEWIGAIDSAGNTFYASWVKGRFTISKDTSKTTVDLQMTSLTAEDTATYFCARDSGAFDPWGQGTLVTVSS
VL: DIQMTQSPSSLSASVGDRVTITCQASQSVYDNYLAWYQQKPGQPPKLLIHAASNLASGVPSRFSGSGSGTEFTLTISSLQPDDFATYYCLGEFSCQDTDCNVFGGGTKVEIKR
notes: also called Clone VH4_H13/L2
B7: #44_VH4_H09/L2 (antibody, V domains shown)
VH: QVQLQESGPGLVKPSETLSLTCTVSGIDLSSYAMAWVRQAPGKGLEWIGAIDARGNTFYASWVKGRFTISKDTSKTTVDLQMTSLTAEDTATYFCARDSGAFDPWGQGTLVTVSS
VL: DIQMTQSPSSLSASVGDRVTITCQASQSVYDNYLAWYQQKPGQPPKLLIHAASNLASGVPSRFSGSGSGTEFTLTISSLQPDDFATYYCLGEFSCQDTDCNVFGGGTKVEIKR
notes: also called Clone VH4_H09/L2
B8: #44_VH4_H06/L2 (antibody, V domains shown)
VH: QVQLQESGPGLVKPSETLSLTCTVSGIDLSSYAMAWVRQAPGKGLEWIGVIDAAGHTFYASWVKGRFTISKDTSKTTVDLQMTSLTAEDTATYFCARDSGTFDPWGQGTLVTVSS
VL: DIQMTQSPSSLSASVGDRVTITCQASQSVYDNYLAWYQQKPGQPPKLLIHAASNLASGVPSRFSGSGSGTEFTLTISSLQPDDFATYYCLGEFSCQDTDCNVFGGGTKVEIKR
notes: also called Clone VH4_H06/L2
B9: #44_VH4VK4_H06-H04/pVL (antibody, V domains shown)
VH: QVQLQESGPGLVKPSETLSLTCTVSGIDLSSYAMAWVRQAPGKGLEWIGVIDAAGHTFYASWVKGRFTISKDTSKTTVDLQMTSLTAEDTATYFCARDAGSFHPWGQGTLVTVSS
VL: DIQMTQSPSSLSASVGDRVTITCQASQSVYDNYLAWYQQKPGQPPKLLIHAASNLASGVPSRFSGSGSGTEFTLTISSLQPDDFATYYCLGEFSCTTTDCNVFGGGTKVEIK
notes: also called H06-04/pVL; Clone VH4_H06_H04
B10: #44_VH4VK4_H06-H02/pVL (antibody, V domains shown)
VH: QVQLQESGPGLVKPSETLSLTCTVSGIDLSSYAMAWVRQAPGKGLEWIGVIDAAGHTFYASWVKGRFTISKDTSKTTVDLQMTSLTAEDTATYFCARDRGDFDVWGQGTLVTVSS
VL: DIQMTQSPSSLSASVGDRVTITCQASQSVYDNYLAWYQQKPGQPPKLLIHAASNLASGVPSRFSGSGSGTEFTLTISSLQPDDFATYYCLGEFSCTTTDCNVFGGGTKVEIK
notes: also called H06-02/pVL; Clone VH4_H06_H02
B11: #44_VH4VK4_H06-H01/pVL (antibody, V domains shown)
VH: QVQLQESGPGLVKPSETLSLTCTVSGIDLSSYAMAWVRQAPGKGLEWIGVIDAAGHTFYASWVKGRFTISKDTSKTTVDLQMTSLTAEDTATYFCARDVGSFDVWGQGTLVTVSS
VL: DIQMTQSPSSLSASVGDRVTITCQASQSVYDNYLAWYQQKPGQPPKLLIHAASNLASGVPSRFSGSGSGTEFTLTISSLQPDDFATYYCLGEFSCTTTDCNVFGGGTKVEIK
notes: also called H06-01/pVL; Clone VH4H_06_H01
B12: #44_VH4VK4_H16-H04/pVL (antibody, V domains shown)
VH: QVQLQESGPGLVKPSETLSLTCTVSGIDLSSYAMAWVRQAPGKGLEWIGAIDRAGNTFYASWVKGRFTISKDTSKTTVDLQMTSLTAEDTATYFCARDAGSFHPWGQGTLVTVSS
VL: DIQMTQSPSSLSASVGDRVTITCQASQSVYDNYLAWYQQKPGQPPKLLIHAASNLASGVPSRFSGSGSGTEFTLTISSLQPDDFATYYCLGEFSCTTTDCNVFGGGTKVEIK
notes: also called Clone VH4_H16_H04; #44_VH4_H16-H04
B13: #44 VH6VK3 humanised hIgG1 (antibody, V domains shown)
VH: QVQLQESGPGLVKPSETLSLTCTVSGIDLSSYAMSWVRQAPGKGLEWVSCIDRRGGTFYASWVKGRFTISRDNSKNTLDLQMTSLTAEDTATYYCARDSGAFDPWGQGTLVTVSS
VL: DIQMTQSPSSLSASVGDRVTITCQASQSVYDNYLAWYQQKPGQPPKLLIHAASNLASGVPSRFKGSGSGTEFTLTISSLQPDDFATYYCLGEFSCTTTDCNVFGGGTKVEIK
notes: also called VH6Vκ3
B14: #44 VH6VK4 humanised hIgG1 (antibody, V domains shown)
VH: QVQLQESGPGLVKPSETLSLTCTVSGIDLSSYAMSWVRQAPGKGLEWVSCIDRRGGTFYASWVKGRFTISRDNSKNTLDLQMTSLTAEDTATYYCARDSGAFDPWGQGTLVTVSS
VL: DIQMTQSPSSLSASVGDRVTITCQASQSVYDNYLAWYQQKPGQPPKLLIHAASNLASGVPSRFSGSGSGTEFTLTISSLQPDDFATYYCLGEFSCTTTDCNVFGGGTKVEIK
notes: also called VH6Vκ4
B15: #44 VH6VK2 humanised hIgG1 (antibody, V domains shown)
VH: QVQLQESGPGLVKPSETLSLTCTVSGIDLSSYAMSWVRQAPGKGLEWVSCIDRRGGTFYASWVKGRFTISRDNSKNTLDLQMTSLTAEDTATYYCARDSGAFDPWGQGTLVTVSS
VL: QIVMTQSPSSLSASVGDRVTITCQASQSVYDNYLAWYQQKPGQPPKLLIHAASNLASGVPSRFKGSGSGTEFTLTISSLQPDDFATYYCLGEFSCTTTDCNVFGGGTKVEIK
notes: also called VH6Vκ2

The binders below were run against T1, full length recombinant human 2N4R tau (human, UniProt P10636 1-758) (assay: SPR SCK, IgG on Protein A, tau in flow).
T1 construct: bought from rPeptide; pHrodo Red maleimide-labelled where it stands in uptake assays; also called tau1-441; full length tau
Experimental: 21.5 Assessment of antibody binding to tau (Biacore SCK analysis): Binding of anti-tau hIgG1 to full length recombinant 2N4R tau (Rpeptide; SEQ ID NO: 2) was assessed using the Biacore T200 (GE Healthcare, Chicago, IL, USA) running Biacore T200 Evaluation Software V2.0.1. hIgG1 were immobilised on a Protein A capture sensor chip in running buffer (HBS-EP+ buffer containing 1 mg/mL BSA) at 25° C., captured to ˜50 RU at 10 μL/min. For single-cycle kinetics experiments, recombinant 2N4R tau was flowed at concentrations ranging from 1.25 nM to 10 nM (2-fold dilutions) with an association time of 60 s and a dissociation time of 200 s. Curves were compared to a reference cell that was mock immobilized (no antibody present).

T1 sequence (P10636 other isoform, or with tags, fused parts or gaps limits assumed): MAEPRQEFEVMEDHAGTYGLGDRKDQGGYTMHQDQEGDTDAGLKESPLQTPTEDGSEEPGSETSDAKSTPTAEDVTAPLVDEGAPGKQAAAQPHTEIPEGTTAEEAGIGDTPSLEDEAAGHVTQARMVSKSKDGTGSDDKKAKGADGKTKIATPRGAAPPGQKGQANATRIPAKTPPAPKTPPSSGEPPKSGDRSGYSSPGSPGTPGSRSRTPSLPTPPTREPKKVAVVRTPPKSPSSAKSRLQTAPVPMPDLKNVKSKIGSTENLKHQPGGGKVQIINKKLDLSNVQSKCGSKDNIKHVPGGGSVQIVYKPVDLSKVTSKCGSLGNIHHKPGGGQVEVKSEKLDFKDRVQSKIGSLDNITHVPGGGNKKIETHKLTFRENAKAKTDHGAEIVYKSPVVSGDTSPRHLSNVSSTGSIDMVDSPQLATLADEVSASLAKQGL

Q: How did the Kd turn out when B1 was run?
A: 7.64 nM

Q: And the “Relative KD (to VH0VK0)” value?
A: 1.99

Q: And the koff?
A: 0.0356 s⁻¹

Q: And the kon?
A: 4.66e+06 M⁻¹ s⁻¹

Q: What does the source list for B2?
A: Kd: 4.35 nM; Relative KD (to VH0VK0): 1.14; koff: 0.0121 s⁻¹; kon: 2.79e+06 M⁻¹ s⁻¹

Q: Which results are given for B3?
A: Kd: 6.81 nM; Relative KD (to VH0VK0): 1.78; koff: 0.03 s⁻¹; kon: 4.4e+06 M⁻¹ s⁻¹

Target: T1, full length recombinant human 2N4R tau
Assay: SPR SCK, IgG on Protein A, tau in flow
Remark: another data set of the same source

Q: B4 was tested. Which “Fold change (KD, to pVH/pVL)” value did it give?
A: 0.26

Q: What about the Kd of the same binder?
A: 24.9 nM

Q: What about the koff of the same binder?
A: 0.0124 s⁻¹

Q: And the kon?
A: 497000 M⁻¹ s⁻¹

Q: How did the “Fold change (KD, to pVH/pVL)” value turn out when B5 was run?
A: 0.52

Q: What about the Kd of the same binder?
A: 12.6 nM

Q: And the koff?
A: 0.0161 s⁻¹

Q: And the kon?
A: 1.28e+06 M⁻¹ s⁻¹

Q: How did the “Fold change (KD, to pVH/pVL)” value turn out when B6 was run?
A: 0.28

Q: What about the Kd of the same binder?
A: 23.5 nM

Q: What about the koff of the same binder?
A: 0.00844 s⁻¹

Q: What about the kon of the same binder?
A: 358000 M⁻¹ s⁻¹

Q: How did the “Fold change (KD, to pVH/pVL)” value turn out when B7 was run?
A: 0.45

Q: What about the Kd of the same binder?
A: 14.6 nM

Q: What about the koff of the same binder?
A: 0.0106 s⁻¹

Q: And the kon?
A: 728000 M⁻¹ s⁻¹

Q: Which “Fold change (KD, to pVH/pVL)” value does the source give for B8 here?
A: 3.54

Q: What about the Kd of the same binder?
A: 1.86 nM

Q: And the koff?
A: 0.00841 s⁻¹

Q: What about the kon of the same binder?
A: 4.52e+06 M⁻¹ s⁻¹

Q: With B9 as the binder, how does the “Fold change (KD, to pVH/pVL)” value read?
A: 9.11

Q: What about the Kd of the same binder?
A: 0.722 nM

Q: What about the koff of the same binder?
A: 0.00443 s⁻¹

Q: What about the kon of the same binder?
A: 6.14e+06 M⁻¹ s⁻¹

Q: B10 was tested. Which “Fold change (KD, to pVH/pVL)” value did it give?
A: 7.73

Q: What about the Kd of the same binder?
A: 0.851 nM

Q: And the koff?
A: 0.00489 s⁻¹

Q: What about the kon of the same binder?
A: 5.75e+06 M⁻¹ s⁻¹

Q: What does the source list for B11?
A: Fold change (KD, to pVH/pVL): 1.71; Kd: 3.85 nM; koff: 0.0121 s⁻¹; kon: 3.15e+06 M⁻¹ s⁻¹

Q: What does the source list for B12?
A: Fold change (KD, to pVH/pVL): 7.88; Kd: 0.835 nM; koff: 0.00417 s⁻¹; kon: 4.99e+06 M⁻¹ s⁻¹

Each binder was assayed against T2, Bovine serum albumin (bovine, UniProt P02769 25-607) (assay: ELISA on 1% BSA, HEK supernatant, anti-human IgG-HRP, n=1).
T2 construct: also called BSA
Experimental: FIG. 7. A panel of humanised anti-tau IgG bind to full length recombinant 2N4R tau in an ELISA format. Supernatants from HEK cells transiently transfected with each IgG clone were tested at 1:100 for binding to full length recombinant 2N4R tau (solid bars). […] Binding of anti-tau hIgG1 was detected using an HRP-conjugated anti-human secondary antibody and data are shown from a representative experiment (n=1 replicate).
Antigen was removed from wells and the plates were then blocked for 1 hour at RT with 5% dried milk in 1×TBS. Blocking solution was removed, HEK293 cell supernatant (1:100 in 1% BSA/1×TBS) was added to relevant wells, and plates were incubated for 1 hour at RT with gentle shaking. Plates were then washed four times with TBS/0.1% Tween (TBST). Goat anti-human IgG-HRP antibody (Thermo Fisher Scientific, Waltham, MA, USA), diluted 1:2000 in 5% milk/TBS, was added to each well and plates were incubated for 1 hour at RT with gentle shaking before being washed four times with TBST. 3,3′,5,5′-tetramethylbenzidine (TMB) ELISA solution was added to each well and plates were incubated for 15 mins at RT. An equal volume of 1 M sulfuric acid was added to each well and OD was measured at 450 nm.

T2 sequence (P02769 25-607 limits assumed): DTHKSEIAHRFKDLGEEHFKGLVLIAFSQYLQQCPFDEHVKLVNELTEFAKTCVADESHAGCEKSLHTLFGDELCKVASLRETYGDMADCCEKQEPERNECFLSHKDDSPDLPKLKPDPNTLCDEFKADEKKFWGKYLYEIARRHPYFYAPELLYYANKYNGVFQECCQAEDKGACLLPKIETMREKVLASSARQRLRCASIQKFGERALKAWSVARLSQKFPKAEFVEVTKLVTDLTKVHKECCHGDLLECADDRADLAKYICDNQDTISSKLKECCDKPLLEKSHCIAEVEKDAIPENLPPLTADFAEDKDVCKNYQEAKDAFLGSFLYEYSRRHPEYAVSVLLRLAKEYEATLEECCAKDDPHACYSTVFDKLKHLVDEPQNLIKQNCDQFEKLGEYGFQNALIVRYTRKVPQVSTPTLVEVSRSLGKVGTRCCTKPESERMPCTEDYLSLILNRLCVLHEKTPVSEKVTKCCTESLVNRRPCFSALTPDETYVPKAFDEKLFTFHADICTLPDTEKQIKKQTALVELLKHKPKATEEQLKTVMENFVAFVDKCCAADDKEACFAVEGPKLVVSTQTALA

Q: Does B1 bind?
A: no binding (tested: supernatant 1:100)

Q: Does B13 bind?
A: no binding (tested: supernatant 1:100)

Q: Does B2 bind?
A: no binding (tested: supernatant 1:100)

Q: Does B14 bind?
A: no binding (tested: supernatant 1:100)

Q: Does B3 bind?
A: no binding (tested: supernatant 1:100)

Q: Does B15 bind?
A: no binding (tested: supernatant 1:100)
